Laboratory results as given in IntAct's records for PubMed 10531343.

B1: Synaptotagmin-9 (Mus musculus), Q9R0N9 (parent)
chain: MPGARDALCHQALQLLAELCARGALEHDSCQDFIYHLRDRARPRLRDPDISVSLLTLVVTACGLALFGVSLFVSWKLCWVPWRERGLFSGSKDNNQEPLNYTDTETNEQENSEDFLDPPTPCPDSSMKISHTSPDIPLSTQPGGQENCAHAVRVQRQVTEPTPSARHNSIRRQLNLSNPDFNIQQLQRQEQLTGIGRIKPELYKQRSLDNDDGRRSNSKACGKLNFILKYDCDLEQLIVKIHKAVNLPAKDFSGTSDPYVKIYLLPDRKTKHQTKVHRKTLNPVFDEVFLFPVHYNDLEARKLHFSVYDFDRFSRHDLIGQVVVDHFFDLADFPRECILWKDIEYVTNDNVDLGELMFSLCYLPTAGRLTITIIKARNLKAMDITGASDPYVKVSLMCDGRRLKKRKTSTKRNTLNPVYNEAIVFDVPPESIDQIHLSIAVMDYDRVGHNEVIGVCQVGNEAERLGRDHWSEMLSYPRKPIAHWHSLMEKR
partner: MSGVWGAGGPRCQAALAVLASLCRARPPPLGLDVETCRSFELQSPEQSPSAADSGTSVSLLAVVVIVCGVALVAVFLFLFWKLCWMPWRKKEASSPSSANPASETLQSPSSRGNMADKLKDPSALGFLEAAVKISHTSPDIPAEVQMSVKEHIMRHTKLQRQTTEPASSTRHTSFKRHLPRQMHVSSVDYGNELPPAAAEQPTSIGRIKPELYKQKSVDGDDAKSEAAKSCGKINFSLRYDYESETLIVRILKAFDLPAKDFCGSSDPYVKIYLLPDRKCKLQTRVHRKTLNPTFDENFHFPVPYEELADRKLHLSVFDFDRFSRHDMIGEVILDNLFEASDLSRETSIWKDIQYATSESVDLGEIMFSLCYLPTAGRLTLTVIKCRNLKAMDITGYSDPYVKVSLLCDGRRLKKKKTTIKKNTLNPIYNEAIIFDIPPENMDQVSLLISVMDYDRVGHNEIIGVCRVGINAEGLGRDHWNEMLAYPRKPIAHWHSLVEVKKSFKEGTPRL
B2: Synaptotagmin-10 (Mus musculus), Q9R0N4 (parent)
chain: MSFRKEDGVSSLCQKALHIITELCFAGQVEWDKCSGIFPADRSGQGGGGTDISVSLLAVVVSFCGLALLVVSLFVFWKLCWPCWKSKLVAPNLSVLPQSISSAPTEVFETEEKKEVEENEKPAPKAIEPAIKISHTSPDIPAEVQTALKEHLIKHARVQRQTTEPTSSSRHNSFRRHLPRQMNVSSVDFSVGTEPILQRGETRTSIGRIKPELYKQKSVDSEGNRKDDVKTCGKLNFALQYDYENELLVVKIIKALDLPAKDFTGTSDPYVKIYLLPDRKKKFQTRVHRKTLNPLFDELFQFPVVYDQLSNRKLHFSIYDFDRFSRHDMIGEVILDNLFEVSDLSREATVWKDIHCATTESIDLGEIMFSLCYLPTAGRMTLTVIKCRNLKAMDITGSSDPYVKVSLMCEGRRLKKRKTTTKKNTLNPVYNEAIIFDIPPENVDQVSLCIAVMDYDRVGHNEVIGVCRTGLDAEGLGRDHWNEMLAYHRKPITHWHPLLELPGRATSFDSQGSCSSPRPPSTP
partner: B1 chain
B3: Synaptotagmin-3 (Mus musculus), O35681 (parent)
chain: MSGDYEDDLCRRALILVSDLCARVRDADTNDRCQEFNELRIRGYPRGPDADISVSLLSVIVTFCGIVLLGVSLFVSWKLCWVPWRDKGGSAVGGGPLRKDLAPGVGLAGLVGGGGHHLGASLGGHPLLGGPHHHGHTAHHPPFAELLEPGGLGGSEPPEPSYLDMDSYPEAAVASVVAAGVKPSQTSPELPSEGGTGSGLLLLPPSGGGLPSAQSHQQVTSLAPTTRYPALPRPLTQQTLTTQADPSTEERPPALPLPLPGGEEKAKLIGQIKPELYQGTGPGGRRGGGSGEAGAPCGRISFALRYLYGSDHLVVRILQALDLPAKDSNGFSDPYVKIYLLPDRKKKFQTKVHRKTLNPIFNETFQFSVPLAELAQRKLHFSVYDFDRFSRHDLIGQVVLDNLLELAEQPPDRPLWRDILEGGSEKADLGELNFSLCYLPTAGRLTVTIIKASNLKAMDLTGFSDPYVKASLISEGRRLKKRKTSIKKNTLNPTYNEALVFDVAPESVENVGLSIAVVDYDCIGHNEVIGVCRVGPEAADPHGREHWAEMLANPRKPVEHWHQLVEEKTLSSFTKGGKGLSEKENSE
partner: B1 partner
B4: Synaptotagmin-10 (Mus musculus), Q9R0N4 (parent)
chain: B2 chain
partner: B3 chain
B5: Synaptotagmin-6 (Mus musculus), Q9R0N8 (parent)
chain: B1 partner
partner: B2 chain
B6: Synaptotagmin-3 (Mus musculus), O35681 (parent)
chain: B3 chain
partner: B1 chain

Variants of: B1
Details: with syt6_mouse Syt6, Q9R0N8

Row | Variant | effect of a mutation on the interaction
1 | MPGARDALAHQALQLLAELCARGALEHDSCQDFIYHLRDRARPRLRDPDISVSLLTLVVTACGLALFGVSLFVSWKLCWVPWRERGLFSGSKDNNQEPLNYTDTETNEQENSEDFLDPPTPCPDSSMKISHTSPDIPLSTQPGGQENCAHAVRVQRQVTEPTPSARHNSIRRQLNLSNPDFNIQQLQRQEQLTGIGRIKPELYKQRSLDNDDGRRSNSKACGKLNFILKYDCDLEQLIVKIHKAVNLPAKDFSGTSDPYVKIYLLPDRKTKHQTKVHRKTLNPVFDEVFLFPVHYNDLEARKLHFSVYDFDRFSRHDLIGQVVVDHFFDLADFPRECILWKDIEYVTNDNVDLGELMFSLCYLPTAGRLTITIIKARNLKAMDITGASDPYVKVSLMCDGRRLKKRKTSTKRNTLNPVYNEAIVFDVPPESIDQIHLSIAVMDYDRVGHNEVIGVCQVGNEAERLGRDHWSEMLSYPRKPIAHWHSLMEKR [C9A] | decreasing interaction

Variants of: B2
Details: with syt9_mouse Syt9, Q9R0N9

Row | Variant | effect of a mutation on the interaction
2 | MSFRKEDGVSSLAQKALHIITELCFAGQVEWDKCSGIFPADRSGQGGGGTDISVSLLAVVVSFCGLALLVVSLFVFWKLCWPCWKSKLVAPNLSVLPQSISSAPTEVFETEEKKEVEENEKPAPKAIEPAIKISHTSPDIPAEVQTALKEHLIKHARVQRQTTEPTSSSRHNSFRRHLPRQMNVSSVDFSVGTEPILQRGETRTSIGRIKPELYKQKSVDSEGNRKDDVKTCGKLNFALQYDYENELLVVKIIKALDLPAKDFTGTSDPYVKIYLLPDRKKKFQTRVHRKTLNPLFDELFQFPVVYDQLSNRKLHFSIYDFDRFSRHDMIGEVILDNLFEVSDLSREATVWKDIHCATTESIDLGEIMFSLCYLPTAGRMTLTVIKCRNLKAMDITGSSDPYVKVSLMCEGRRLKKRKTTTKKNTLNPVYNEAIIFDIPPENVDQVSLCIAVMDYDRVGHNEVIGVCRTGLDAEGLGRDHWNEMLAYHRKPITHWHPLLELPGRATSFDSQGSCSSPRPPSTP [C13A] | decreasing interaction

Variants of: B3
Details: with syt6_mouse Syt6, Q9R0N8

Row | Variant | effect of a mutation on the interaction
3 | MSGDYEDDLARRALILVSDLCARVRDADTNDRCQEFNELRIRGYPRGPDADISVSLLSVIVTFCGIVLLGVSLFVSWKLCWVPWRDKGGSAVGGGPLRKDLAPGVGLAGLVGGGGHHLGASLGGHPLLGGPHHHGHTAHHPPFAELLEPGGLGGSEPPEPSYLDMDSYPEAAVASVVAAGVKPSQTSPELPSEGGTGSGLLLLPPSGGGLPSAQSHQQVTSLAPTTRYPALPRPLTQQTLTTQADPSTEERPPALPLPLPGGEEKAKLIGQIKPELYQGTGPGGRRGGGSGEAGAPCGRISFALRYLYGSDHLVVRILQALDLPAKDSNGFSDPYVKIYLLPDRKKKFQTKVHRKTLNPIFNETFQFSVPLAELAQRKLHFSVYDFDRFSRHDLIGQVVLDNLLELAEQPPDRPLWRDILEGGSEKADLGELNFSLCYLPTAGRLTVTIIKASNLKAMDLTGFSDPYVKASLISEGRRLKKRKTSIKKNTLNPTYNEALVFDVAPESVENVGLSIAVVDYDCIGHNEVIGVCRVGPEAADPHGREHWAEMLANPRKPVEHWHQLVEEKTLSSFTKGGKGLSEKENSE [C10A] | decreasing interaction

Variants of: B4
Details: with syt3_mouse Syt3, O35681

Row | Variant | effect of a mutation on the interaction
4 | MSFRKEDGVSSLAQKALHIITELCFAGQVEWDKCSGIFPADRSGQGGGGTDISVSLLAVVVSFCGLALLVVSLFVFWKLCWPCWKSKLVAPNLSVLPQSISSAPTEVFETEEKKEVEENEKPAPKAIEPAIKISHTSPDIPAEVQTALKEHLIKHARVQRQTTEPTSSSRHNSFRRHLPRQMNVSSVDFSVGTEPILQRGETRTSIGRIKPELYKQKSVDSEGNRKDDVKTCGKLNFALQYDYENELLVVKIIKALDLPAKDFTGTSDPYVKIYLLPDRKKKFQTRVHRKTLNPLFDELFQFPVVYDQLSNRKLHFSIYDFDRFSRHDMIGEVILDNLFEVSDLSREATVWKDIHCATTESIDLGEIMFSLCYLPTAGRMTLTVIKCRNLKAMDITGSSDPYVKVSLMCEGRRLKKRKTTTKKNTLNPVYNEAIIFDIPPENVDQVSLCIAVMDYDRVGHNEVIGVCRTGLDAEGLGRDHWNEMLAYHRKPITHWHPLLELPGRATSFDSQGSCSSPRPPSTP [C13A] | decreasing interaction

Variants of: B5
Details: with syt10_mouse Syt10, Q9R0N4

Row | Variant | effect of a mutation on the interaction
5 | MSGVWGAGGPRAQAALAVLASLCRARPPPLGLDVETCRSFELQSPEQSPSAADSGTSVSLLAVVVIVCGVALVAVFLFLFWKLCWMPWRKKEASSPSSANPASETLQSPSSRGNMADKLKDPSALGFLEAAVKISHTSPDIPAEVQMSVKEHIMRHTKLQRQTTEPASSTRHTSFKRHLPRQMHVSSVDYGNELPPAAAEQPTSIGRIKPELYKQKSVDGDDAKSEAAKSCGKINFSLRYDYESETLIVRILKAFDLPAKDFCGSSDPYVKIYLLPDRKCKLQTRVHRKTLNPTFDENFHFPVPYEELADRKLHLSVFDFDRFSRHDMIGEVILDNLFEASDLSRETSIWKDIQYATSESVDLGEIMFSLCYLPTAGRLTLTVIKCRNLKAMDITGYSDPYVKVSLLCDGRRLKKKKTTIKKNTLNPIYNEAIIFDIPPENMDQVSLLISVMDYDRVGHNEIIGVCRVGINAEGLGRDHWNEMLAYPRKPIAHWHSLVEVKKSFKEGTPRL [C12A] | decreasing interaction

Variants of: B6
Details: with syt9_mouse Syt9, Q9R0N9

Row | Variant | effect of a mutation on the interaction
6 | MSGDYEDDLARRALILVSDLCARVRDADTNDRCQEFNELRIRGYPRGPDADISVSLLSVIVTFCGIVLLGVSLFVSWKLCWVPWRDKGGSAVGGGPLRKDLAPGVGLAGLVGGGGHHLGASLGGHPLLGGPHHHGHTAHHPPFAELLEPGGLGGSEPPEPSYLDMDSYPEAAVASVVAAGVKPSQTSPELPSEGGTGSGLLLLPPSGGGLPSAQSHQQVTSLAPTTRYPALPRPLTQQTLTTQADPSTEERPPALPLPLPGGEEKAKLIGQIKPELYQGTGPGGRRGGGSGEAGAPCGRISFALRYLYGSDHLVVRILQALDLPAKDSNGFSDPYVKIYLLPDRKKKFQTKVHRKTLNPIFNETFQFSVPLAELAQRKLHFSVYDFDRFSRHDLIGQVVLDNLLELAEQPPDRPLWRDILEGGSEKADLGELNFSLCYLPTAGRLTVTIIKASNLKAMDLTGFSDPYVKASLISEGRRLKKRKTSIKKNTLNPTYNEALVFDVAPESVENVGLSIAVVDYDCIGHNEVIGVCRVGPEAADPHGREHWAEMLANPRKPVEHWHQLVEEKTLSSFTKGGKGLSEKENSE [C10A] | decreasing interaction
